Experimental data: paper PMC8125063

Columns and labels:
[1] = target: human Fbp2 L190G mutein (human); assay: native gel or EMSA; Native 9% PAGE; 200 mM Glycine-NaOH pH 9.0, 1 mM MgCl2, with or without 100 µM CoCl2 and/or 10 µM AMP in gel and running buffer; 3 h at 254 V
[2] = target: human Fbp2 L190G mutein (human); assay: SEC; HiLoad 16/600 Superdex 200 pg; 50 mM HEPES-NaOH pH 7.5, 150 mM KCl, 1 mM MgCl2, with or without 100 µM CoCl2 and/or 10 µM AMP; 0.5 mg protein loaded, 1 mL/min

Work on human Fbp2 L190G mutein (enzyme) yielded a stoichiometry N [1] of 2 and a stoichiometry N [2] of 2.
